The values that follow are results of earlier work, collected in paper PMC3823252.

The Kd is a measure of binding affinity in units of concentration.

This data set has as its target KpOmpA (Klebsiella pneumoniae) (UniProt P24017).

Chain of KpOmpA (Klebsiella pneumoniae) (P24017 2-344): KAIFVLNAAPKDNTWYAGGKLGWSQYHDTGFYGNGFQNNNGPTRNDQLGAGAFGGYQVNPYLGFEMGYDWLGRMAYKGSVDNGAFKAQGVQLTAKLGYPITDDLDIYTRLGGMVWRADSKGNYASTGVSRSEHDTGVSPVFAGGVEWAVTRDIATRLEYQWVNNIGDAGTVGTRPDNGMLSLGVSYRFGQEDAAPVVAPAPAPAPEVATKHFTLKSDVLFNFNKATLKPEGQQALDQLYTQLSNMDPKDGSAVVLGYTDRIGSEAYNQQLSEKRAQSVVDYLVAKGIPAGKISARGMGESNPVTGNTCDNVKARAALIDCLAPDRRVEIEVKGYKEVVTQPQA
Chain of PTX3 (P26022 18-381): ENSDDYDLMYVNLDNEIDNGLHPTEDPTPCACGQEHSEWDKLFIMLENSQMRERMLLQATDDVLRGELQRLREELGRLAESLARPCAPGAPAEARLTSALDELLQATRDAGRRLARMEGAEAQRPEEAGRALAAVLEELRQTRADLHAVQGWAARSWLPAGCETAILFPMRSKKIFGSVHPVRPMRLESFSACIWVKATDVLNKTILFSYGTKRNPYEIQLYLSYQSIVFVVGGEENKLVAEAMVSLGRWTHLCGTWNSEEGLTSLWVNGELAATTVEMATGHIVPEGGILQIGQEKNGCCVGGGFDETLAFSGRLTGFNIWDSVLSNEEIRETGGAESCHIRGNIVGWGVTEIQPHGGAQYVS

For PTX3 (from UniProt P26022), the Kd is 50 nM.
